For the data set, the system named is ApCREB-1 (Aplysia californica). The data set can be described thus: cell_activity. The note with it: F9 cells with PKA; 2.13 without PKA; 1.64 with ApCREB-2 plus PKA.

The source of these data is US20060088535.

For the sequence “TGACGTCA (double strand) [single CRE palindrome in pGL3-CRE reporter]”, the activity (fold activation) came to 10.5.
